Results published in paper PMC11722253.

Tests used:
[1] = molecular target: T1, SPbeta integrase-RDF fusion (SprA-SprB) (Bacillus subtilis phage SPbeta, UniProt O32006 1-545+=TSGSGGSGGSGGSGRSGT+O34850:2-58, internal_change); experiment: SEC
T1 sequence: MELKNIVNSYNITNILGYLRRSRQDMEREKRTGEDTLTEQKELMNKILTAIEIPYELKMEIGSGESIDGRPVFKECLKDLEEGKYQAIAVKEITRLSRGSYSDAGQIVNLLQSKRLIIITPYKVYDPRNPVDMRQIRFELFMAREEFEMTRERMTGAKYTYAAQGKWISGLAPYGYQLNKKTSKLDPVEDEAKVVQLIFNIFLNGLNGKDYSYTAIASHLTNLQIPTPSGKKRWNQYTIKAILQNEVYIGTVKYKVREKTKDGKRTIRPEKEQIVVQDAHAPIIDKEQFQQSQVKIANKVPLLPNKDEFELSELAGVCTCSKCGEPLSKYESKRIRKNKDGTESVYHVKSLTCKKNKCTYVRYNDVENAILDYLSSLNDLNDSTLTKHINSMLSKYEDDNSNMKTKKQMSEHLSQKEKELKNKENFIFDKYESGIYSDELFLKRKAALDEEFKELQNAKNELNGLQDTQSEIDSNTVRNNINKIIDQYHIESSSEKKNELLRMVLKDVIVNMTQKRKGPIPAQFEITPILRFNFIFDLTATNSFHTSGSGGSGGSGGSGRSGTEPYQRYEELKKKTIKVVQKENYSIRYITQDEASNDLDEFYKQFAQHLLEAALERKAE

SPbeta integrase (SprA) = molecular target: T2, SPbeta integrase (SprA) (Bacillus subtilis phage SPbeta, UniProt O32006 1-545); experiment: SEC
T2 sequence: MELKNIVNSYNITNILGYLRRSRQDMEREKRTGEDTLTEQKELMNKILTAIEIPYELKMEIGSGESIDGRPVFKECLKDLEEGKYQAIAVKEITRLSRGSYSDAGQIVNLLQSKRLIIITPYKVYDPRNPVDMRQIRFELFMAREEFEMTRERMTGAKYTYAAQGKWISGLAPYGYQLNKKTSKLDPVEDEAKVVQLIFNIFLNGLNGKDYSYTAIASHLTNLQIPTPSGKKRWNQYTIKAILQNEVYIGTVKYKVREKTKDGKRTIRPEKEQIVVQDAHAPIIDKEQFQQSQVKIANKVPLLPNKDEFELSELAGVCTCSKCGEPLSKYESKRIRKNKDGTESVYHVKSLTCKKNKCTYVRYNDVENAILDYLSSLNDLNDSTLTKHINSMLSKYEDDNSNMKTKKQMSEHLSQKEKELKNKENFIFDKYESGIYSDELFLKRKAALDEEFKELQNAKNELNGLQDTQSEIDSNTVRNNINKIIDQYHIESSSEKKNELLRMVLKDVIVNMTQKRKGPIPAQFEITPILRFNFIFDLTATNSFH

B1: attPmm (dsDNA)
DNA 1: AAAAAAAAGGTAGTAAGTATCTTAAAAAACAGATTTAGCTGTATATTAAGATACTTACTAC
DNA 2: GTAGTAAGTATCTTAATATACAGCTTTATCTGTTTTTTAAGATACTTACTACTTTTTTTTT
- binding result [1]: binds
- binding result (SPbeta integrase (SprA)): binds
